This assay deals with nab-paclitaxel nanoparticles (human, UniProt P02768 25-609). Description: BLI.

B1: biotinylated bevacizumab (antibody, V domains shown)
VH: EVQLVESGGGLVQPGGSLRLSCAASGYTFTNYGMNWVRQAPGKGLEWVGWINTYTGEPTYAADFKRRFTFSLDTSKSTAYLQMNSLRAEDTAVYYCAKYPHYYGSSHWYFDVWGQGTLVTVSS
VL: DIQMTQSPSSLSASVGDRVTITCSASQDISNYLNWYQQKPGKAPKVLIYFTSSLHSGVPSRFSGSGSGTDFTLTISSLQPEDFATYYCQQYSTVPWTFGQGTKVEIK
modifications: biotin (sites not given) | biotin (sites not given)
B1 yielded a Kd of 4.51 µM.

For the origin of these results see paper PMC5670201 (2017).
